Source: PMC4798948, “Nucleocapsid assembly in pneumoviruses is regulated by conformational switching of the N protein” (eLife, 2016)
Values joined by “and” are separate entries in the source; they are usually repeats but may differ in a detail not shown here. Equal values may be shown once.

How the values were obtained:
[1] = molecular target: the molecule itself; experiment: crystal structure; N-RNA ring (~4 mg/mL), RNA-bound; 100 mM Tris/Bicine pH 8.5, 90 mM NPS, 37.5% MPD/PEG 1000/PEG 3350 (MORPHEUS); 4.2 Å; ten-fold non-crystallographic symmetry
[2] = molecular target: the molecule itself; experiment: electron cryomicroscopy with 2D classification; purified N-RNA preparation plunge-frozen on holey carbon grids; 2D-class averages with RELION

B1: HMPV nucleoprotein N, assembled RNA-bound state (N-RNA rings) (natural protein)
chain: MSLQGIHLSDLSYKHAILKESQYTIKRDVGTTTAVTPSSLQQEITLLCGEILYAKHADYKYAAEIGIQYISTALGSERVQQILRNSGSEVQVVLTRTYSLGKIKNNKGEDLQMLDIHGVEKSWVEEIDKEARKTMATLLKESSGNIPQNQRPSAPDTPIILLCVGALIFTKLASTIEVGLETTVRRANRVLSDALKRYPRMDIPKIARSFYDLFEQKVYHRSLFIEYGKALGSSSTGSKAESLFVNIFMQAYGAGQTMLRWGVIARSSNNIMLGHVSVQAELKQVTEVYDLVREMGPESGLLHLRQSPKAGLLSLANCPNFASVVLGNASGLGIIGMYRGRVPNTELFSAAESYAKSLKESNKINFSSLGLTDEEKEAAEHFLNVSDDSQNDYE
notes: Nucleoprotein N of human metapneumovirus, strain NL1-00 (A1), full-length N gene, 394 residues; each N subunit contacts seven RNA nucleotides; also called subnucleocapsid ring; decameric N-RNA ring; source: Rosetta2 E. coli, purified (Ni-NTA, Superose 6), with RNA from the expression host
stoichiometry N [1]: 10 | stoichiometry N [2]: 9 and 11
